Data reported in publication PMC9399681, “Structural insight into ASH1L PHD finger recognizing methylated histone H3K4 and promoting cell growth in prostate cancer” (Frontiers in Oncology, 2022).
Where a chain is given by its changes, count along the chain named. Primed or numbered codes have the meaning given here. Where no end group is shown, it is not given here. [ ]: non-standard residue; d: D form. Me3″ = trimethylation (trimethyl-lysine); Me2 = dimethylation (dimethyl-lysine); Lys(Me2) = CN(C)CCCC[C@H](N)C(=O)O

B1: histone H3 (1–15) peptide, trimethylated on lysine 4 (peptide, UniProt P68431 2-16, looked up)
peptide: ARTK(Me3″)QTARKSTGGKA
notes: histone H3, residues 1-15; also called H3K4me3; source: synthetic peptide (MIMOYOPES, Wuxi, China)
B2: histone H3 (29–43) peptide with dimethylation on lysine 36 (peptide)
chain: APATGGVK(Me2)KPHRYRP
B3: histone H3 (1–15) peptide, unmethylated on lysine 4 (peptide, UniProt P68431 2-16, looked up)
peptide: ARTKQTARKSTGGKA
notes: histone H3, residues 1-15; also called H3K4; H3K4me0; source: synthetic peptide (MIMOYOPES, Wuxi, China)
B4: histone H3 (2–16) peptide with dimethylation on lysine 9 (peptide, UniProt P68431 3-17, looked up)
peptide: RTKQTARK(Me2)STGGKAP
notes: histone H3, residues 2-16; also called H3K9me2; source: synthetic peptide (MIMOYOPES, Wuxi, China)
B5: histone H3 (1–15) peptide, dimethylated on lysine 4 (peptide)
peptide: ART[Lys(Me2)]QTARKSTGGKA
notes: also called H3K4me2; H3K4me2 peptide (1–15); source: synthetic peptide (MIMOYOPES, Wuxi, China)
B6: histone H3 (1–15) peptide, monomethylated on lysine 4 (peptide, UniProt P68431 2-16, looked up)
peptide: ARTK(Me)QTARKSTGGKA
notes: histone H3, residues 1-15; also called H3K4me1; H3K4me; source: synthetic peptide (MIMOYOPES, Wuxi, China)

Tests used:
[1] = target: T1, ASH1L PHD finger (Mus musculus, UniProt Q99MY8); assay: 1H,15N HSQC chemical shift perturbation; assay type: binding, mASH1L; settings: protein-to-peptide molar ratio 1:5; 298 K, 800 MHz, 1×PBS, pH 7.2, 100-μM ZnCl2
T1 construct: The mASH1L PHD domain (residue 2573–2624); MBP (cleaved yes); made in house; host or cells: Escherichia coli BL21 (DE3)
Excerpt: The mASH1L PHD domain (residue 2573–2624) was subcloned into a modified pMAL-c5X expression vector (New England Biolabs, Ipswich, MA, US), which contains an MBP tag and a TEV cleavage site. The site-directed mutagenesis of D2573A, I2575A, D2584E, E2585A, M2588A, Q2590E, and W2597A in the PHD domain was generated using the PfuTurbo DNA polymerase (Agilent Technologies) and Dpn I restriction enzyme (New England Biolabs). After the MBP tag was cut by TEV, these proteins were used in ITC and NMR experiments. The His-tagged PHD domain was subcloned into a pGEX-4T1 expression vector. The base vector has a GST tag and was engineered to include a TEV cleavage site before a 5′ 6×His sequence. […]
The bacteria were grown in Luria Broth (LB) media, supplemented with 100-μM ZnCl2 (all PHD constructs). […] The size and purity of the purified protein were monitored by SDS-PAGE. The PHD protein was concentrated with a filter tube (Millipore, Co. Cork, Ireland) and measured by UV absorbance at 280 nm.
The ^1H,^15N HSQC spectra of the ^15N-labeled PHD finger were collected at 298 K on a Bruker 800-MHz NMR spectrometer equipped with the z-gradient triple-resonance cryoprobe. The binding was analyzed through monitoring chemical shift perturbations observed in the two-dimensional ^1H,^15N HSQC spectra of PHD finger upon the addition of H3 (aa 1-15) peptides (H3K4me, H3K4me2, H3K4me3). […]

[2] = target: T1, ASH1L PHD finger; assay: ITC, ASH1L PHD finger with H3 peptides; assay type: binding, mASH1L; settings: 1×PBS, 100-μM ZnCl2, pH 7.2; for binding by ITC, in words: 25°C
Method: The bacteria were grown in Luria Broth (LB) media, supplemented with 100-μM ZnCl2 (all PHD constructs). All PHD domains were expressed in Escherichia coli BL21 (DE3) cells and induced overnight with 0.5-mM isopropyl-β-D-1-thiogalactopyranoside (IPTG) at 22°C. In addition, the cells were harvested by centrifugation at 4,000 g. The harvested cells with MBP-tagged PHD were resuspended in buffer containing 25-mM Tris, pH 7.2, 1-M NaCl, 20-mM β-mercaptoethanol, 100-μM ZnCl2, and the Complete EDTA-free Protease Inhibitor (Roche, Mannheim, Germany). Following lysis in a microfluidizer (MFIC), cell debris was removed by centrifugation at 12,000 g for 1 h and the supernatant was loaded on a 5-ml MBPTrap HP column (GE Healthcare). The binding protein was eluted with buffer containing 25-mM Tris, pH 7.2, 500-mM NaCl, 20-mM β-mercaptoethanol, 20-mM maltose, and 100-μM ZnCl2. After TEV cleavage, the PHD domain was supplemented with 20-mM DTT and further purified using a Superdex 75 column (GE Healthcare, Uppsala, Sweden) in a final buffer containing 1×PBS, pH 7.2, 100- μM ZnCl2. […] The PHD protein was concentrated with a filter tube (Millipore, Co. Cork, Ireland) and measured by UV absorbance at 280 nm.
ITC assays were carried out on the MicroCal iTC200 System (Malvern) at 25°C while stirring at 750 rpm in the ITC buffer of pH 7.2, consisting of 1×PBS, 100-μM ZnCl2. […] The PHD or tandem Bromo-PHD protein sample of 100 µM was placed in the cell and titrated with 3 mM of a different peptide solution in the ITC buffer using a set of 31 injections of 1.2 μl, following a single initial injection of 0.2 μl. In the ITC measurements of PHD mutant samples, the H3 (1–15) peptides were diluted to the final concentrations of 1.5 mM, titrated with a single initial injection of 0.4 μl and followed with a set of 19 injections of 2 μl. Cumulative enthalpy exchange plots were derived from the raw thermal changes, using one set of a site-fitting model.

[3] = target: mASH1L PHD domain (residue 2573–2624) (mouse) (UniProt Q99MY8); assay: ITC; MicroCal iTC200, 25°C, 1×PBS pH 7.2, 100 μM ZnCl2; 100 µM PHD or tandem Bromo-PHD in the cell, titrated with 3 mM peptide (31 injections of 1.2 μl); one set of sites model
[4] = target: T2, His-tagged Bromo-PHD tandem domain (residue 2425–2627) of mASH1L (mouse, UniProt Q99MY8 2425-2627); assay: as above; settings: both partners purified
T2 construct: ASH1L (mASH1L), bromodomain and PHD finger in tandem, residues 2425-2627; pNIC-Bsa4 vector; no cleavage of the His tag is described; also called tandem Bromo-PHD protein; source: E. coli BL21 (DE3), purified (HiTrap IMAC FF, Superdex 75)

[5] = target: mASH1L PHD domain (residue 2573–2624) M2588A (mouse, UniProt Q99MY8 2573-2624, M2588A); assay: ITC
[6] = target: mASH1L PHD domain (residue 2573–2624) D2573A (mouse, UniProt Q99MY8 2573-2624, D2573A); assay: ITC
[7] = target: mASH1L PHD domain (residue 2573–2624) I2575A (mouse, UniProt Q99MY8 2573-2624, I2575A); assay: ITC
[8] = target: mASH1L PHD domain (residue 2573–2624) E2585A (mouse, UniProt Q99MY8 2573-2624, E2585A); assay: ITC
[9] = target: T3, mASH1L PHD domain (residue 2573–2624) (mouse, UniProt Q99MY8 2573-2624); assay: ITC
T3 chain: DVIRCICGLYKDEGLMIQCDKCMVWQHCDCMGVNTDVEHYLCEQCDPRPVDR

[10] = target: mASH1L PHD domain (residue 2573–2624) W2597A (mouse, UniProt Q99MY8 2573-2624, W2597A); assay: ITC
[11] = target: mASH1L PHD domain (residue 2573–2624) Q2590E (mouse, UniProt Q99MY8 2573-2624, Q2590E); assay: ITC
[12] = target: mASH1L PHD domain (residue 2573–2624) (mouse) (UniProt Q99MY8); assay: NMR titration; 1H,15N HSQC; 100 μM PHD domain titrated with 25 to 2,000 μM peptide; 1×PBS pH 7.2, 100 μM ZnCl2, 298 K; single-site binding model
[13] = target: T4, mASH1L PHD domain (residue 2573–2624) D2584E (mouse, UniProt Q99MY8 2573-2624, D2584E); assay: ITC; PHD mutants in the cell; H3 (1–15) peptides at 1.5 mM, 19 injections of 2 μl; 25°C, 1×PBS pH 7.2, 100 μM ZnCl2; one set of sites model; settings: both partners purified
T4 construct: also called Asp2584 to Glu; source: E. coli BL21 (DE3), purified (MBPTrap, TEV cleavage, Superdex 75)
T4 sequence (looked up): T3 chain with D12E

[14] = target: T5, mASH1L PHD domain (residue 2573–2624) Q2590E (mouse, UniProt Q99MY8 2573-2624, Q2590E); assay: as above; settings: both partners purified
T5 construct: also called Gln2590 to glutamate; source: E. coli BL21 (DE3), purified (MBPTrap, TEV cleavage, Superdex 75)
T5 sequence (looked up): T3 chain with Q18E

[15] = target: T6, mASH1L PHD domain (residue 2573–2624) (mouse, UniProt Q99MY8 2573-2624); assay: ITC; MicroCal iTC200, 25°C, 1×PBS pH 7.2, 100 μM ZnCl2; 100 µM PHD or tandem Bromo-PHD in the cell, titrated with 3 mM peptide (31 injections of 1.2 μl); one set of sites model; settings: both partners purified
T6 construct: 15N- or 13C-labelled for the NMR experiments; also called ASH1L PHD finger; source: E. coli BL21 (DE3), purified (MBPTrap, TEV cleavage, Superdex 75)

Row | Molecule | Kd [3] [µM] | Kd [4] [µM] | Kd [5] [µM] | Kd [6] [µM] | Kd [8] [µM] | Kd [10] [µM] | Kd [11] [µM] | Kd [12] [µM] | Kd [13] [µM] | binding result [14] | also measured
1 | CC(C)[C@H](NC(=O)CNC(=O)CNC(=O)[C@@H](NC(=O)[C@H](C)NC(=O)[C@@H]1CCCN1C(=O)[C@H](C)N)[C@@H](C)O)C(=O)N[C@@H](CCCCN(C)C)C(=O)N[C@@H](CCCCN)C(=O)N1CCC[C@H]1C(=O)N[C@@H](Cc1c[nH]cn1)C(=O)N[C@@H](CCCNC(=N)N)C(=O)N[C@@H](Cc1ccc(O)cc1)C(=O)N[C@@H](CCCNC(=N)N)C(=O)N1CCC[C@H]1C(=O)O [H3K36me2] |  |  |  |  |  |  |  |  |  |  | HSQC chemical shift perturbation [1]: binds with methylated H3K4 peptides but not H3K4me0, H3K9me2, or H3K36me2 peptides; binding by ITC, in words [2]: weak binding affinity
2 | C[C@H](NC(=O)[C@@H](NC(=O)[C@H](CCC(N)=O)NC(=O)[C@H](CCCCN)NC(=O)[C@@H](NC(=O)[C@@H](N)CCCNC(=N)N)[C@@H](C)O)[C@@H](C)O)C(=O)N[C@@H](CCCNC(=N)N)C(=O)N[C@@H](CCCCN(C)C)C(=O)N[C@@H](CO)C(=O)N[C@H](C(=O)NCC(=O)NCC(=O)N[C@@H](CCCCN)C(=O)N[C@@H](C)C(=O)N1CCC[C@H]1C(=O)O)[C@@H](C)O [H3K9me2] |  |  |  |  |  |  |  |  |  |  | HSQC chemical shift perturbation [1]: binds with methylated H3K4 peptides but not H3K4me0, H3K9me2, or H3K36me2 peptides; binding by ITC, in words [2]: weak binding affinity; Kd ([2]; MicroCal iTC200, 25°C, 100 µM protein titrated with 3 mM peptide, H3 (1–15) peptides, H3 (2–16) K9me2, H3 (29–43) K36me2): > 500 µM
3 | B1 | 64 | ~48 | > 200 | 86 | 49 | > 200 | 33 | 106 | ~38 | binds | Kd [7]: 103 µM; Kd [9]: 33 µM
4 | B2 |  |  |  |  |  |  |  |  |  |  | Kd [15]: > 500 µM
5 | B3 | > 300 | > 500 |  |  |  |  |  |  |  |  | 
6 | B4 |  |  |  |  |  |  |  |  |  |  | Kd [15]: > 500 µM
7 | B5 | 39 | ~29 | > 200 | 71 | 174 | > 200 | 35 | 238 | ~26 | binds | Kd [7]: > 200 µM
8 | B6 | 75 | ~64 | > 200 | 188 | 140 | > 200 | 31 | 181 | ~54 | binds | Kd [9]: 41 µM
